{"source": "paper PMC5687031", "biological_target": "full-length Spc29^2-253 (S. cerevisiae) (UniProt P33419)", "assay": "SAXS", "data": [{"substance": "full-length Spc29^2-253 (from UniProt P33419 2-253) (natural protein)", "values": [{"measurement": "stoichiometry N", "result": 3, "unit": "chains"}]}]}
